T1: cynomolgus CD73 ECD fused C-terminally to human IgG1 Fc (cynomolgus monkey (Macaca …, UniProt A0A2K5V5U7 27-549))
T1 construct: also called Cy CD73 ECD; Fc-tagged antigen; not shown: Human IgG1 Fc (printed as AA P101-K330) fused to the C-terminus of the ECD, and any linker
T1 sequence: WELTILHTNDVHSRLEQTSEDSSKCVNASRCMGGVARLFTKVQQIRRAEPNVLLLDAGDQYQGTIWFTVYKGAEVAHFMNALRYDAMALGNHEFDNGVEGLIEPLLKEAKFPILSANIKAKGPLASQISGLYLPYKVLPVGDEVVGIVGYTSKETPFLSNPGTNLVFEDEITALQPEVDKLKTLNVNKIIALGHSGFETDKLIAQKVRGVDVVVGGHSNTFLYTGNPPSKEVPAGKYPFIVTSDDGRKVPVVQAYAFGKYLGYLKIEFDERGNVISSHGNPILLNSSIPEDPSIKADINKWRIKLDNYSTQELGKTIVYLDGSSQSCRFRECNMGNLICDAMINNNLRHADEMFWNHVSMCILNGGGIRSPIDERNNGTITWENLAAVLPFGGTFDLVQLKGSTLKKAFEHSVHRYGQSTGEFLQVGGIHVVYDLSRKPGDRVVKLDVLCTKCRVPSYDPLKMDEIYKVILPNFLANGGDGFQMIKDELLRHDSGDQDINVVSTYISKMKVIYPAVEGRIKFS

T2: human CD73 ECD fused C-terminally to human IgG1 Fc (human, UniProt P21589 27-549, limits assumed)
T2 construct: Expressed in ExpiCHO; also called Hs CD73 ECD; Fc-tagged antigen
T2 sequence: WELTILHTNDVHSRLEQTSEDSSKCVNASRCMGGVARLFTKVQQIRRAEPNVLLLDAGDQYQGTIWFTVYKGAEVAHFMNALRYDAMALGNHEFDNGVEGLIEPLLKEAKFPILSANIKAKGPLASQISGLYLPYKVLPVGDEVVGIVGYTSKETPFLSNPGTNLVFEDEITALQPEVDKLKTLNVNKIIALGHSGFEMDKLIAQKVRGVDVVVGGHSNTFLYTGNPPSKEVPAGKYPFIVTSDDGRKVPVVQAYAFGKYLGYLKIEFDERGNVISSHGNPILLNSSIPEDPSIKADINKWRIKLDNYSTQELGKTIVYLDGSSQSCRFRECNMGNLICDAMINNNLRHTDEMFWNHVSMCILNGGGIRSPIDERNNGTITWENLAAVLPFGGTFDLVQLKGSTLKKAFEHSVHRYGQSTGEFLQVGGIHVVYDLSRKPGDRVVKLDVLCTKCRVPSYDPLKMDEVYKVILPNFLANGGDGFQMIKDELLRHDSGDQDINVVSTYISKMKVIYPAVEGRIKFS


Tests used:
[1] = target: T1, cynomolgus CD73 ECD fused C-terminally …; assay: SPR, Fc-tagged CD73 ECD captured, Fab injected
Method: (§1) Kinetic binding analysis of anti-CD73 mAbs and Fab fragments was performed by Surface Plasmon Resonance (SPR), using a Continuous Flow Microspotter (CFM, Wasatch Microfluidics, Salt Lake City, US) combined with an IBIS MX96 SPR instrument (IBIS Technologies, The Netherlands). CD73 cDNAs coding for the extracellular domains of human and cynomolgus CD73 were synthesized and each cloned into a vector containing a CMV promoter and either a C-terminal 6× histidine sequence (SEQ ID NO: 45) for His-tagged CD73 ECD, or a human IgG1 Fc sequence (AA P101-K330), resulting in fusion of IgG1 Fc C-terminally to the cloned CD73 ECD. The His-tagged and Fc-fusion constructs were transiently expressed using an ExpiCHO™ expression system and purified either by standard Ni-NTA chromatography or standard MabSelect™ SuRe™ procedures, respectively. Anti-CD73 Fab fragments were generated by digesting full-length IgG1 antibodies with GingisKHAN enzyme, using a kit provided by Genovis (Sweden). Affinities of Fab fragments were measured by capturing Fc-tagged antigens on a G-a-hu-IgG Fc SensEye® for 15 minutes using the CFM. After spotting, the SensEye® was positioned in the IBIS MX96 biosensor and immobilized antigens were fixed by SensEye FixIt kit. Kinetic analysis was performed by injecting monomeric Fab fragments at increasing concentrations from 0.8 nM to 300 nM. After each cycle of Fab fragment injection, the surface was regenerated by 10 mM glycine pH 3, 10% glycerol. Fab association was performed for 15 minutes and antigen dissociation was performed for 15 minutes. Affinities of full-length monoclonal antibodies (mAbs) were measured by capturing mAbs on a G-a-hu-IgG Fc SensEye® (Ssens BV, The Netherlands) for 15 minutes using a Continuous Flow Microspotter (CFM, Wasatch Microfluidics, Salt Lake City, US). After spotting, the SensEye was docked in the IBIS MX96 and spotted mAbs were fixed by SensEye FixIt kit (Ssens BV, The Netherlands). Kinetic analysis was performed by applying a kinetic titration series injecting increasing concentrations of His-tagged antigens from 0.16 nM to 10 nM as 2-fold dilutions. The surface was regenerated before the next cycle of cynomolgus antigen injections by 100 mM H₃PO₄, pH 3. MAb association was performed for 15 minutes and antigen dissociation was performed for 45 minutes.

[2] = target: T2, human CD73 ECD fused C-terminally to …; assay: SPR, Fc-tagged CD73 ECD captured, Fab injected
Method: as §1

Binder	Kd [1] [nM]	Kd [2] [nM]	koff [1] [s⁻¹]	kon [1] [M⁻¹ s⁻¹]	koff [2] [s⁻¹]	kon [2] [M⁻¹ s⁻¹]
21127 Fab fragment (Fab, V domains shown, not shown: small tags and cut ends, Made by digesting the full-length IgG1 with GingisKHAN enzyme (Genovis)) VH: EVQLVESGGGLVQPGRSLRLSCAASGFTFDDFAMHWVRQAPGKGLEWVSGISWNSGNIGYADSVKGRFTISRDNAKNSLYLQMNSLRAEDTALYYCAKDKSGSPYYYYGMDVWGQGTMVTVSS VL: DIQMTQSPSSVSASVGDRVTITCRATQGISRRLAWYQQKPGKAPKLLIYAASSLQSGVPSRFSGSGSGTDFTLTISSLQPEDFATYYCQQANSFPLTFGGGTKVEIKR	55.3	54.6				
21163 Fab fragment (Fab, V domains shown, not shown: small tags and cut ends, Made by digesting the full-length IgG1 with GingisKHAN enzyme (Genovis)) VH: EVQLVESGGGLVQPGGSLRLSCAASGFSFSTYWMNWVRQAPGKGLEWVANIKQDGSEKYYVDSVKGRFTISRDNAKNSLYLQMNSLRAEDTAVYYCARDISSSWFYYYGMDVWGQGTTVTVSS VL: DIQLTQSPSFLSASVGDRVTITCRASQGISSYLAWYQQKPGKAPKLLIYAASTLQSGVPSRFSGSGSGTEFTLTISSLQPEDFATYYCQQLNSYPPTFGGGTKVEIKR	77.6	78.3	0.016	200000	0.015	200000
21046 Fab fragment (Fab, V domains shown, not shown: small tags and cut ends, Made by digesting the full-length IgG1 with GingisKHAN enzyme (Genovis)) VH: EVQLVESGGGLVQPGRSLRLSCVASGFTFDDYAMHWVRQAPGKGLEWVSGISWNSGSIGYADSVKGRFTISRDNAKNSLYLQMNSLRAEDTAFYYCAQGGYAILTALEYWGQGTLVTVSS VL: DIQMTQSPSSLSASVGDRVTITCRASQGISNYLAWFQQKPGKAPKSLIYAASSLQSGVPSKFSGSGSGTDFTLTISSLQPEDFATYYCQQYNSYPLTFGGGTKVEIKR	0.8	0.8	0.00052	620000	0.0005	610000
